According to patent US20210347873A1 (SHANGHAI PHARMAEXPLORER, published 2021):
Where two headings read alike, the source gives them in different places. One block for each binder: values may come before it.

What was measured:
[1] = target: T1, extracellular domain of human BLyS protein (hBLyS-ECD), His-tagged, Ala134-Leu285 (human, UniProt Q9Y275 134-285); experiment: cell-based or functional assay
biotinylated hBLyS-ECD [2] = target: T2, biotinylated hBLyS-ECD (human, UniProt Q9Y275 134-285, biotinylated with Biotin-X-X-NHS (molar ratio 7:1); sites not stated); experiment: ELISA on captured biotinylated hBLyS-ECD; antibody 13.3 nM
T2 construct: also called biotinylated immunogen; biotinylated hBLvS-ECD

biotinylated hBLyS-ECD [3] = target: T2, biotinylated hBLyS-ECD; experiment: ELISA on captured biotinylated hBLyS-ECD; antibody 2.67 nM
biotinylated hBLyS-ECD [4] = target: T2, biotinylated hBLyS-ECD; experiment: ELISA on captured biotinylated hBLyS-ECD; antibody 66.7 nM
biotinylated hBLyS-ECD [5] = target: T2, biotinylated hBLyS-ECD; experiment: ELISA on captured biotinylated hBLyS-ECD; antibody 0.107 nM
biotinylated hBLyS-ECD [6] = target: T2, biotinylated hBLyS-ECD; experiment: ELISA on captured biotinylated hBLyS-ECD; antibody 0.534 nM
biotinylated hBLyS-ECD [7] = target: T2, biotinylated hBLyS-ECD; experiment: ELISA on captured biotinylated hBLyS-ECD; antibody 0.0213 nM
biotinylated hBLyS-ECD [8] = target: T2, biotinylated hBLyS-ECD; experiment: ELISA on captured biotinylated hBLyS-ECD; antibody 0.00427 nM
biotinylated hBLyS-ECD [9] = target: T2, biotinylated hBLyS-ECD; experiment: ELISA on captured biotinylated hBLyS-ECD; antibody 0 nM (background)
[10] = target: T1, extracellular domain of human BLyS …; experiment: SPR (Biacore), antibody captured by anti-human Fc, hBLyS-ECD as analyte
biotinylated hBLyS-ECD [11] = target: T3, biotinylated hBLyS-ECD (human, UniProt Q9Y275 134-285, biotinylated with Biotin-X-X-NHS (molar ratio 7:1), sites not stated); experiment: ELISA: biotinylated hBLyS-ECD captured on streptavidin, antibody titrated, HRP secondary antibody
T3 construct: The hBLyS-ECD of Embodiment 1 after biotinylation (Embodiment 2); also called biotinylated immunogen; BLyS protein; not shown: His tag of the pCPC vector

[12] = target: T1, extracellular domain of human BLyS …; experiment: cell-based or functional assay; remark: listed apart in the source
biotinylated hBLyS-ECD [13] = target: T3, biotinylated hBLyS-ECD; experiment: ELISA: biotinylated hBLyS-ECD captured on streptavidin, antibody titrated, HRP secondary antibody; remark: listed apart in the source

B1: c111D10D6G3 (antibody, V domains shown)
VH: QVQLQQPGAELVKPGASVKMSCKASGYTFTRHWITWVKQRPGQGLEWIGDIFPGSGSINYNEKFKSEATLTVEKSSSTAYMQLSSLTSEDSAVYYCARGDVDVWGTGTTVTVSS
VL: DIQMTQSPSSLSASLGERVSLTCRASQEIRGYLSWLQQKPNGTIKRLIYAASTLDSGVPKRFSATRSGSDFSLTISSLESEDFADYYCLQYASYPFTFGSGTKLEIK
Proportion of B lymphocytes in splenocytes (%), in vivo in mice [1]: 33.2%
OD450 nm (biotinylated hBLyS-ECD [2]): 3.39 OD450 nm
OD450 nm (biotinylated hBLyS-ECD [3]): 3.4 OD450 nm
OD450 nm (biotinylated hBLyS-ECD [4]): 3.43 OD450 nm
OD450 nm (biotinylated hBLyS-ECD [5]): 2.12 OD450 nm
OD450 nm (biotinylated hBLyS-ECD [6]): 3.16 OD450 nm
OD450 nm (biotinylated hBLyS-ECD [7]): 0.747 OD450 nm
OD450 nm (biotinylated hBLyS-ECD [8]): 0.222 OD450 nm
OD450 nm (biotinylated hBLyS-ECD [9]): 0.105 OD450 nm
Kd [10]: 0.297 nM
koff [10]: 2.98e-05 s⁻¹
kon [10]: 100000 M⁻¹ s⁻¹

B4: c67A2E1D10 (antibody, V domains shown)
VH: EVQLQQSGAELVKPGASVKLSCTASGFNIKNYYMHWVKQRTEEGLEWIGRIDPEDGETKYAPKFQAKATITADTSSNTAYLQLSSLTSEDTAVYFCARKGYYGNYGAWFAYWGQGTLVTVSA
VL: DIQMTQSPASLSVSVGETVTITCRASEDLYSNLAWYQQKQGKSPQLLVYAATFLADGVPSRFSGSGSGTQYSLKINSLQSEDFGNYYCQHFWGTPPTFGGGTKLEIK
OD450 nm (as headed), mouse B lymphocyte proliferation; antibody 0 nM [12]: 4060
OD450 nm (as headed), mouse B lymphocyte proliferation; antibody 0.000256 nM [12]: 4720
OD450 nm (as headed), mouse B lymphocyte proliferation; antibody 0.00128 nM [12]: 4810
OD450 nm (as headed), mouse B lymphocyte proliferation; antibody 0.0064 nM [12]: 5170
OD450 nm (as headed), mouse B lymphocyte proliferation; antibody 0.032 nM [12]: 4340
OD450 nm (as headed), mouse B lymphocyte proliferation; antibody 0.16 nM [12]: 3900
OD450 nm (as headed), mouse B lymphocyte proliferation; antibody 0.8 nM [12]: 3970
OD450 nm (as headed), mouse B lymphocyte proliferation; antibody 4 nM [12]: 3500
OD450 nm (as headed), mouse B lymphocyte proliferation; antibody 20 nM [12]: 2610
OD450 nm (as headed), mouse B lymphocyte proliferation; antibody 100 nM [12]: 1100
OD450 nm (biotinylated hBLyS-ECD [2]): 3.24 OD450 nm
OD450 nm (biotinylated hBLyS-ECD [3]): 2.94 OD450 nm
OD450 nm (biotinylated hBLyS-ECD [4]): 3.19 OD450 nm
OD450 nm (biotinylated hBLyS-ECD [5]): 1.58 OD450 nm
OD450 nm (biotinylated hBLyS-ECD [6]): 2.73 OD450 nm
OD450 nm (biotinylated hBLyS-ECD [7]): 0.523 OD450 nm
OD450 nm (biotinylated hBLyS-ECD [8]): 0.143 OD450 nm
OD450 nm (biotinylated hBLyS-ECD [9]): 0.0848 OD450 nm
Kd [10]: 4.99 nM
koff [10]: 0.000159 s⁻¹
kon [10]: 32000 M⁻¹ s⁻¹

B5: c8E7D9C7F5 (antibody, human IgG1, V domains shown)
VH: QVQLQQSGVELARPGASVKLSCKASGYTFTSYGISWVKQRTGQALEWIGEIYPRSGNTYYNEKFKGKATLTADKSSSTAYMELRSLTSEDSAVYFCARSGPITTLVATDYGMDYWGQGTSVTVSS
VL: DIVLTQSPASLAVSLGQRATISCRASKSVSTSSYSYMHWYQQKPGQPPKLLIKFASNLESGVPARFSGSGSGTDFTLNIHPVEEEDAATYYCQHSREFPYTFGGGTKLEIK
notes: also called BLyS chimeric antibody
EC50 (read off the curve) (biotinylated hBLyS-ECD [13]): ~0.1 nM
EC50 (read off the curve) (biotinylated hBLyS-ECD [11]): ~0.1 nM

More lines, now with the values ahead:

EC50 (read off the curve) (biotinylated hBLyS-ECD [11]): ~0.08 nM
B2: h8E7D9C7F5-1 (antibody, human IgG1, V domains shown)
VH: EVQLVQSGAEVKKPGASVKVSCKASGYTFTSYGISWVRQAPGQGLEWMGEIYPRSGNTYYNEKFKGRVTMTTDTSTSTAYMELRSLRSDDTAVYYCARSGPITTLVATDYGMDYWGQGTTVTVSS
VL: DIVMTQSPDSLAVSLGERATINCRASKSVSTSSYSYMHWYQQKPGQPPKLLIKFASNLESGVPDRFSGSGSGTDFTLTISSLQAEDVAVYYCQHSREFPYTFGGGTKVEIK
notes: Humanized (VH.1 / Vk.1); also called humanized BLyS antibody

EC50 (read off the curve) (biotinylated hBLyS-ECD [11]): 0.1 to 0.2 nM
B3: h97A3C2H4-9 (antibody, human IgG1, V domains shown)
VH: EVQLVESGGGLVQPGGSLRLSCAASGFTFSTYTMSWVRQAPGKRLEWVAYISYGGGSTSYPDTVKGRFTISRDNAKNSLYLQMNSLRAEDTAVYYCTRHVTVVENSMDYWGQGTTVTVSS
VL: DILLTQSPDFQSVTPKEKVTITCRASQSIGTSIHWYQQKTDQSPKLLIKYVSESFSGTPSRFSGSGSGTDFTLTINSLEAEDAATYYCQQTHSWPWTFGGGTKVEIK
notes: Humanized (VH.1b / Vk.1d); also called humanized BLyS antibody
